Reference: the supplement of paper PMC7125110
± gives the standard error. For some assays here: Fewer inactive variants are shown than the library holds.

B1: glmS ribozyme (parent)
chain: AUAAAAGCGCCAGAACUACAGAAAUGUAGUUGACGAGGAGGAGGUUUAUCGAAUUUUCGGCGGAUGCCUCCAAA

What was measured:
Conditions in all cases: with glucosamine-6-phosphate
[1] = variants of: B1; test: kcat; higher = faster cleavage; RNA array
Method in brief: (§1)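 kobs was derived by fitting per-tile medians to one- or two-exponential decays after normalising signals to baseline and to non-cleaving reference variants. Those signals came from barcoded ribozyme variants transcribed in situ by E. coli RNA polymerase on sequenced MiSeq chips, followed through a hybridised Cy3 probe at 37 °C and imaged over ~14 h. Glucosamine-6-phosphate (40 μM to 10 mM) in HEPES/KCl/Mg(OAc)2 buffer was flowed in. Weighted Michaelis–Menten fits across concentrations then gave kcat and KM.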

[2] = variants of: B1; test: KM; higher = weaker cofactor use; RNA array
Method in brief: as §1

[3] = variants of: B1; test: self-cleavage kobs at 40 uM GlcN6P; higher = faster cleavage; RNA array
Method in brief: as §1

[4] = variants of: B1; test: self-cleavage kobs at 160 uM GlcN6P; higher = faster cleavage; RNA array
Method in brief: as §1

[5] = variants of: B1; test: self-cleavage kobs at 640 uM GlcN6P; higher = faster cleavage; RNA array
Method in brief: as §1

[6] = variants of: B1; test: self-cleavage kobs at 10000 uM GlcN6P; higher = faster cleavage; RNA array
Method in brief: as §1

[7] = variants of: B1; test: self-cleavage kobs at 2500 uM GlcN6P; higher = faster cleavage; RNA array
Method in brief: as §1

Variant	kcat [1] [s⁻¹]	KM [2] [µM]	self-cleavage kobs at 40 uM GlcN6P [3] [s⁻¹]	self-cleavage kobs at 160 uM GlcN6P [4] [s⁻¹]	self-cleavage kobs at 640 uM GlcN6P [5] [s⁻¹]	self-cleavage kobs at 10000 uM GlcN6P [6] [s⁻¹]	self-cleavage kobs at 2500 uM GlcN6P [7] [s⁻¹]
C50A G59U	< 1e-05	181 ± 24	< 1e-05	< 1e-05	< 1e-05	< 1e-05	
C16U C58G	0.000176 ± 1.3e-05	1730 ± 350			4.29e-05 ± 9.1e-06	0.000146 ± 1.3e-05	0.000117 ± 1.6e-05
C16U A39G	0.0255 ± 0.0088	866 ± 400	0.00133 ± 0.00019	0.00365 ± 0.00075	0.00828 ± 0.0019	0.0356 ± 0.0085	0.0177 ± 0.0063
G32U C70U	0.00165 ± 0.00025	5270 ± 1300		7.01e-05 ± 1.6e-05	0.000182 ± 2.4e-05	0.00111 ± 8.8e-05	0.000464 ± 6.3e-05
U56C C58A	0.000232 ± 6.7e-05				3.8e-05 ± 1.6e-05	0.000146 ± 1.9e-05	5.91e-05 ± 1.6e-05
U30A U31G	0.0198 ± 0.0021	2040 ± 290	0.000379 ± 4.9e-05	0.00148 ± 0.00031	0.00508 ± 0.0011	0.0178 ± 0.003	0.00933 ± 0.0019
A12G G59C	6.79e-05 ± 1.4e-05		< 1e-05			5.86e-05 ± 1.4e-05	7.69e-05 ± 2.4e-05
G41A U65A	0.000213 ± 2.1e-05	1040 ± 220			7.98e-05 ± 1.2e-05	0.000182 ± 3e-05	0.000171 ± 3e-05
A33U G60C	< 1e-05		< 1e-05		< 1e-05	< 1e-05	
A52C C70A	1.34e-05 ± 4e-06						
G43U U56A	1.76e-05 ± 3.4e-06		< 1e-05				
G32U U65A	0.000104 ± 1.3e-05	5750 ± 1600		< 1e-05		6.61e-05 ± 1.3e-05	
C16G G29A	0.00419 ± 0.00058	1940 ± 370	9.85e-05 ± 1.6e-05	0.000295 ± 5.2e-05	0.00103 ± 0.00015	0.00387 ± 0.00066	0.00212 ± 0.00039
C11A U54C	0.000278 ± 3.7e-05	4640 ± 1100			3.08e-05 ± 1e-05	0.000186 ± 3.4e-05	0.00011 ± 2.9e-05
A52G U54C	0.00197 ± 7e-05	2700 ± 150	2.55e-05 ± 1.1e-05	0.000111 ± 1.8e-05	0.000379 ± 5.7e-05	0.00153 ± 0.00019	0.000985 ± 0.00015
A36U C68G	0.000198 ± 5.7e-05		7.38e-05 ± 1.2e-05		0.000275 ± 3.5e-05	0.000121 ± 3.4e-05	
G51U U65G G66C	< 1e-05				< 1e-05	< 1e-05	
G7A A15G U54G	3.72e-05 ± 1.5e-05		< 1e-05	< 1e-05			
A52G C58G	1.7e-05 ± 1.7e-06						
A14U C50A	1.95e-05 ± 4.6e-06						
G32U U47C	0.000177 ± 4.1e-05	7840 ± 3400				9.94e-05 ± 1.4e-05	4.27e-05 ± 1.2e-05
C11U A39G	0.00395 ± 0.00067	1780 ± 480	7.9e-05 ± 1.3e-05	0.00047 ± 9.6e-05	0.00116 ± 0.00026	0.00358 ± 0.00044	0.00192 ± 0.00036

Variant	kcat [1] [s⁻¹]	KM [2] [µM]	self-cleavage kobs at 40 uM GlcN6P [3] [s⁻¹]	self-cleavage kobs at 160 uM GlcN6P [4] [s⁻¹]	self-cleavage kobs at 640 uM GlcN6P [5] [s⁻¹]	self-cleavage kobs at 10000 uM GlcN6P [6] [s⁻¹]	self-cleavage kobs at 2500 uM GlcN6P [7] [s⁻¹]
C11U A12G	0.00116 ± 0.00011	1760 ± 310		9.07e-05 ± 1.3e-05	0.000315 ± 4.3e-05	0.000933 ± 8.4e-05	0.00079 ± 8.1e-05
C16U G37C	1.3e-05 ± 3e-06		< 1e-05				
A6G A14U	0.000128 ± 4.9e-06	1370 ± 180			3.84e-05 ± 1e-05	0.000111 ± 1.1e-05	8.77e-05 ± 1.3e-05
U30C G59A	< 1e-05						
U56G C61U	< 1e-05		< 1e-05				
A15U C70U	0.00472 ± 0.0018	1330 ± 650	0.000195 ± 1.7e-05	0.000378 ± 4.7e-05	0.00147 ± 0.00031	0.00469 ± 0.00065	0.00286 ± 0.00048
U30C C67A	8.57e-05 ± 7.5e-06				7.21e-05 ± 1.3e-05	8.63e-05 ± 8.9e-06	6.84e-05 ± 1.1e-05
G32A C68U	0.0003 ± 1.7e-05	2170 ± 300			7.37e-05 ± 1.1e-05	0.000251 ± 2e-05	0.000149 ± 1.9e-05
G32A A53C	0.00145 ± 0.00063			8.36e-05 ± 1.6e-05	0.000126 ± 1.8e-05	0.000944 ± 0.00012	0.0004 ± 7.3e-05
G13C U30G	3.93e-05 ± 3.7e-06	2100 ± 830				3.23e-05 ± 9.3e-06	
A64C C71U	0.00012 ± 8.4e-06	2400 ± 500				9.59e-05 ± 1.1e-05	6.58e-05 ± 1.3e-05
G7C A36G G37U A52U U57C G63U	< 1e-05						< 1e-05
G43U G66A	2.89e-05 ± 1.6e-06	431 ± 170					
A33C U45A	0.000472 ± 1.3e-05	3500 ± 180			7.41e-05 ± 1.9e-05	0.00035 ± 5.3e-05	0.000197 ± 2.9e-05
G40U G66U	6.98e-05 ± 5.6e-06	2030 ± 510			2.07e-05 ± 8.1e-06	5.9e-05 ± 7.2e-06	3.54e-05 ± 7.3e-06
C8U C61A	< 1e-05						
U56A C58U	0.00027 ± 2.5e-05	3350 ± 650			5.03e-05 ± 1.6e-05	0.000208 ± 3.2e-05	0.000108 ± 1.9e-05
C16G A33C	4.59e-05 ± 3.9e-06		< 1e-05			4.28e-05 ± 1.3e-05	3.96e-05 ± 1.6e-05
G13A U54C	0.000629 ± 0.00013	2490 ± 920		2.7e-05 ± 1e-05	0.000134 ± 2.4e-05	0.000458 ± 7.1e-05	0.000405 ± 6.2e-05
A15U U47G	0.000703 ± 0.00012	1160 ± 360	5.1e-05 ± 1.1e-05	8.04e-05 ± 1.3e-05	0.000238 ± 2.7e-05	0.000653 ± 7.7e-05	0.000473 ± 5.8e-05
A15U C67G	0.000167 ± 1.9e-06	1030 ± 37		2.34e-05 ± 1.1e-05	6.43e-05 ± 9.7e-06	0.000153 ± 1.2e-05	0.000115 ± 1.8e-05
A53C C67A	0.000935 ± 0.0003	1500 ± 750		7.58e-05 ± 1.6e-05	0.000414 ± 6.3e-05	0.000889 ± 0.00017	0.000435 ± 0.00011

Variant	kcat [1] [s⁻¹]	KM [2] [µM]	self-cleavage kobs at 40 uM GlcN6P [3] [s⁻¹]	self-cleavage kobs at 160 uM GlcN6P [4] [s⁻¹]	self-cleavage kobs at 640 uM GlcN6P [5] [s⁻¹]	self-cleavage kobs at 10000 uM GlcN6P [6] [s⁻¹]	self-cleavage kobs at 2500 uM GlcN6P [7] [s⁻¹]
G7A U54C	1.94e-05 ± 3.6e-06						
A64C C68U	< 1e-05		< 1e-05	< 1e-05		< 1e-05	
G40U A48U	7.9e-05 ± 9.5e-06	3220 ± 1300	< 1e-05			5.95e-05 ± 8.8e-06	3.77e-05 ± 1.6e-05
G32U U46G	0.000316 ± 0.00012				4.52e-05 ± 1.5e-05	0.000169 ± 2e-05	6.3e-05 ± 1.1e-05
G32U U46A	0.000102 ± 7.4e-06	4100 ± 670				7.21e-05 ± 1.5e-05	3.94e-05 ± 1.1e-05
G40C U45C	0.000403 ± 4.9e-05	2310 ± 570			0.0001 ± 2.5e-05	0.000344 ± 6.4e-05	0.000195 ± 3.4e-05
A53G C68G	0.000144 ± 2.6e-05			5.82e-05 ± 1e-05	8.52e-05 ± 9.4e-06		0.00014 ± 1.5e-05
C10G A52U	< 1e-05		< 1e-05	< 1e-05	< 1e-05		
G13A G40U	8.11e-05 ± 1e-05	2810 ± 990	< 1e-05			6.21e-05 ± 8.8e-06	4.21e-05 ± 8.5e-06
U46G C70G	0.00028 ± 2.1e-05	192 ± 44	4.54e-05 ± 1.1e-05	0.000122 ± 1.7e-05	0.000265 ± 3.3e-05	0.000258 ± 2.6e-05	0.000263 ± 3.4e-05
G66A	0.0375 ± 0.011	2780 ± 890	0.00059 ± 1.2e-05	0.0016 ± 6.7e-05	0.00697 ± 0.0004	0.0316 ± 0.0015	0.016 ± 0.00099
G29A C71A	0.000446 ± 4.4e-05	592 ± 140			0.000233 ± 4e-05	0.000437 ± 0.00014	0.000344 ± 0.0001
A12U U30A	0.0401 ± 0.009	1980 ± 540	0.000782 ± 0.00011		0.0124 ± 0.0029	0.0321 ± 0.007	
C10G A52G U56A C70A	1.68e-05 ± 4.2e-06						
G35U G43U	< 1e-05				< 1e-05		< 1e-05
A48G U55C	0.000123 ± 9.6e-06	458 ± 210			7.4e-05 ± 2.3e-05	0.000113 ± 1.3e-05	0.000125 ± 2.5e-05
U55C A64G	0.000719 ± 0.00011	1350 ± 370	4.14e-05 ± 1.2e-05	6.7e-05 ± 1e-05	0.000233 ± 3e-05	0.000595 ± 6.1e-05	0.000568 ± 7e-05
A36U U49G	2.84e-05 ± 1.2e-05		< 1e-05				3.43e-05 ± 1.7e-05
A33U U54C	0.000118 ± 8e-06	2880 ± 720		< 1e-05		9.17e-05 ± 1.1e-05	5.23e-05 ± 2e-05
G29A A52G	0.000368 ± 9e-05	3290 ± 1300			5.31e-05 ± 8.1e-06	0.000255 ± 3.8e-05	0.000207 ± 2.8e-05
A12C G44C	4.97e-05 ± 2.4e-06	4150 ± 610		< 1e-05		3.51e-05 ± 7.6e-06	
G13C G32A	0.00943 ± 0.0032	3620 ± 1600	0.000142 ± 1.5e-05	0.000338 ± 6.2e-05	0.00124 ± 0.00016	0.00781 ± 0.00085	0.00305 ± 0.00052
